Measured values reported in IntAct's records for PubMed 22151054.

B1: Myeloid leukemia factor 1 (Homo sapiens), P58340 (parent)
chain: MFRMLNSSFEDDPFFSESILAHRENMRQMIRSFSEPFGRDLLSISDGRGRAHNRRGHNDGEDSLTHTDVSSFQTMDQMVSNMRNYMQKLERNFGQLSVDPNGHSFCSSSVMTYSKIGDEPPKVFQASTQTRRAPGGIKETRKAMRDSDSGLEKMAIGHHIHDRAHVIKKSKNKKTGDEEVNQEFINMNESDAHAFDEEWQSEVLKYKPGRHNLGNTRMRSVGHENPGSRELKRREKPQQSPAIEHGRRSNVLGDKLHIKGSSVKSNKK

Variants of: B1
Details: with 1433e_human YWHAE

| effect of a mutation on the interaction | Variant |
| --- | --- |
| decreasing interaction | MFRMLNSSFEDDPFFSESILAHRENMRQMIRSASEPFGRDLLSISDGRGRAHNRRGHNDGEDSLTHTDVSSFQTMDQMVSNMRNYMQKLERNFGQLSVDPNGHSFCSSSVMTYSKIGDEPPKVFQASTQTRRAPGGIKETRKAMRDSDSGLEKMAIGHHIHDRAHVIKKSKNKKTGDEEVNQEFINMNESDAHAFDEEWQSEVLKYKPGRHNLGNTRMRSVGHENPGSRELKRREKPQQSPAIEHGRRSNVLGDKLHIKGSSVKSNKK [F33A] |
